Source: article PMC12152739

System: CC(C)(O/N=C(\C(=O)N[C@@H]1C(=O)N2C(C(=O)[O-])=C(C[N+]3(CCNC(=O)c4ccc(O)c(O)c4Cl)CCCC3)CS[C@H]12)c1csc(N)n1)C(=O)O
Test: purified protein, by the assay type
Conditions: other: FDC hydrolysis by VIM-2, 30 °C, pH 7.5

Substance: VIM-2 (Escherichia coli)
- kcat: 1.1 ± 0.14 s⁻¹
